The values that follow come from PMC7041718 (The Journal of Experimental Medicine, 2019).

This assay addresses 16055 gp120 (HIV-1 clade C clinical isolate 16055). Description: ELISA.

B1: GM7_TH2 mAb (antibody, V domains shown)
VH: QVQLVQSGTEVKQPGASVKVSCKASGYTFTGYGMNWVRQAHGQRLEWMGWINTETGHPTYAQGFKERFTFSMDTSISTAYLQINSLKPEDTAIYYCARFSGLHSVAVFEYWGQGVLVTVSS
VL: SSGLTQEPALSVALGHTVRMTCQGDSLKTYYATWYQQKPGQVPVLVIYDNNYRPSGIPGRFSVSWSGDTNSLTITAAQVEDEADYYCNSWDSSGTHLLFGGGTRLTVL
Take B1: the binding result was “binds”.
